Test results reported in patent US20200268901A1 (Bristol-Myers Squibb, published 2020).
Values joined by “and” are separate entries in the source; they are usually repeats but may differ in a detail not shown here. Equal entries are not always repeated. Where two headings read alike, the source gives them in different places.

B1: CD73.4-IgG2.5-plusTHT (antibody)
heavy: QVQLVESGGGVVQPGRSLRLSCAASGFTFSNYGMHWVRQAPGKGLEWVAVILYDGSNKYYPDSVKGRFTISRDNSKNTLYLQMNSLRAEDTAVYYCARGGSSWYPDSFDIWGQGTMVTVSSASTKGPSVFPLAPSSRSTSESTAALGCLVKDYFPEPVTVSWNSGALTSGVHTFPAVLQSSGLYSLSSVVTVPSSNFGTQTYTCNVDHKPSNTKVDKTVERKCCVETHTCPPCPAPPVAGPSVFLFPPKPKDTLMISRTPEVTCVVVDVSHEDPEVQFNWYVDGVEVHNAKTKPREEQFNSTFRVVSVLTVVHQDWLNGKEYKCKVSNKGLPAPIEKTISKTKGQPREPQVYTLPPSREEMTKNQVSLTCLVKGFYPSDIAVEWESNGQPENNYKTTPPMLDSDGSFFLYSKLTVDKSRWQQGNVFSCSVMHEALHNHYTQKSLSLSPGK
light: not shown
B2: CD73.4-IgG2.3G1.1f-KH (antibody)
heavy: QVQLVESGGGVVQPGRSLRLSCAASGFTFSNYGMHWVRQAPGKGLEWVAVILYDGSNKYYPDSVKGRFTISRDNSKNTLYLQMNSLRAEDTAVYYCARGGSSWYPDSFDIWGQGTMVTVSSASTKGPSVFPLAPCSRSTSESTAALGCLVKDYFPEPVTVSWNSGALTSGVHTFPAVLQSSGLYSLSSVVTVPSSNFGTQTYTCNVDHKPSNTKVDKTVERKSCVECPPCPAPPVAGPSVFLFPPKPKDTLMISRTPEVTCVVVDVSHEDPEVKFNWYVDGVEVHNAKTKPREEQYNSTYRVVSVLTVLHQDWLNGKEYKCKVSNKALPSSIEKTISKAKGQPREPQVYTLPPSREEMTKNQVSLTCLVKGFYPSDIAVEWESNGQPENNYKTTPPVLDSDGSFFLYSKLTVDKSRWQQGNVFSCSVMHEALHNHYTQKSLSLSPGK
light: not shown
notes: also called CD73.4-IgG2-C219S-IgG1.1f; CD73.4-IgG2CS-IgG1.1f
B3: CD73.4-IgG2.5 (antibody)
heavy: QVQLVESGGGVVQPGRSLRLSCAASGFTFSNYGMHWVRQAPGKGLEWVAVILYDGSNKYYPDSVKGRFTISRDNSKNTLYLQMNSLRAEDTAVYYCARGGSSWYPDSFDIWGQGTMVTVSSASTKGPSVFPLAPSSRSTSESTAALGCLVKDYFPEPVTVSWNSGALTSGVHTFPAVLQSSGLYSLSSVVTVPSSNFGTQTYTCNVDHKPSNTKVDKTVERKCCVECPPCPAPPVAGPSVFLFPPKPKDTLMISRTPEVTCVVVDVSHEDPEVQFNWYVDGVEVHNAKTKPREEQFNSTFRVVSVLTVVHQDWLNGKEYKCKVSNKGLPAPIEKTISKTKGQPREPQVYTLPPSREEMTKNQVSLTCLVKGFYPSDIAVEWESNGQPENNYKTTPPMLDSDGSFFLYSKLTVDKSRWQQGNVFSCSVMHEALHNHYTQKSLSLSPGK
light: not shown
B4: CD73.4-IgG2.5G1.1f-KH (antibody)
heavy: QVQLVESGGGVVQPGRSLRLSCAASGFTFSNYGMHWVRQAPGKGLEWVAVILYDGSNKYYPDSVKGRFTISRDNSKNTLYLQMNSLRAEDTAVYYCARGGSSWYPDSFDIWGQGTMVTVSSASTKGPSVFPLAPSSRSTSESTAALGCLVKDYFPEPVTVSWNSGALTSGVHTFPAVLQSSGLYSLSSVVTVPSSNFGTQTYTCNVDHKPSNTKVDKTVERKCCVECPPCPAPPVAGPSVFLFPPKPKDTLMISRTPEVTCVVVDVSHEDPEVKFNWYVDGVEVHNAKTKPREEQYNSTYRVVSVLTVLHQDWLNGKEYKCKVSNKALPSSIEKTISKAKGQPREPQVYTLPPSREEMTKNQVSLTCLVKGFYPSDIAVEWESNGQPENNYKTTPPVLDSDGSFFLYSKLTVDKSRWQQGNVFSCSVMHEALHNHYTQKSLSLSPGK
light: not shown
B5: CD73.10-IgG2-C219S (antibody)
heavy: QVQLVESGGGVVQPGRSLRLSCAASGFTFSNYGMHWVRQAPGKGLEWVAVIWYDESNKYYPDSVKGRFTISRDNSKNTLYLQMNSLRAEDTAVYYCARGGSSWYPDSFDIWGQGTMVTVSSASTKGPSVFPLAPCSRSTSESTAALGCLVKDYFPEPVTVSWNSGALTSGVHTFPAVLQSSGLYSLSSVVTVPSSNFGTQTYTCNVDHKPSNTKVDKTVERKSCVECPPCPAPPVAGPSVFLFPPKPKDTLMISRTPEVTCVVVDVSHEDPEVQFNWYVDGVEVHNAKTKPREEQFNSTFRVVSVLTVVHQDWLNGKEYKCKVSNKGLPAPIEKTISKTKGQPREPQVYTLPPSREEMTKNQVSLTCLVKGFYPSDIAVEWESNGQPENNYKTTPPMLDSDGSFFLYSKLTVDKSRWQQGNVFSCSVMHEALHNHYTQKSLSLSPG
light: not shown
notes: anti-CD73; also called CD73.10-IgG2CS
B6: 11F11 (antibody, human IgG2, kappa, V domains shown)
VH: QVQLVESGGGVVQPGRSLRLSCATSGFTFSNYGMHWVRQAPGKGLEWVAVILYDGSNKYYPDSVKGRFTISRDNSKNTLYLQMNSLRAEDTAVYYCARGGSSWYPDSFDIWGQGTMVTVSS
VL: DIQMTQSPSSLSASVGDRVTITCRASQGISSWLAWYQQKPEKAPKSLIYAASSLQSGVPSRFSGSGSGTDFTLTISSLQPEDFATYYCQQYNSYPLTFGGGTKVEIKR
notes: anti-CD73, IgG2; also called 11F11(IgG2)

Tests used:
[1] = biological target: T1, human CD73 on Calu6 cells (human, UniProt P21589 27-549); test: cell-based or functional assay
T1 sequence (looked up): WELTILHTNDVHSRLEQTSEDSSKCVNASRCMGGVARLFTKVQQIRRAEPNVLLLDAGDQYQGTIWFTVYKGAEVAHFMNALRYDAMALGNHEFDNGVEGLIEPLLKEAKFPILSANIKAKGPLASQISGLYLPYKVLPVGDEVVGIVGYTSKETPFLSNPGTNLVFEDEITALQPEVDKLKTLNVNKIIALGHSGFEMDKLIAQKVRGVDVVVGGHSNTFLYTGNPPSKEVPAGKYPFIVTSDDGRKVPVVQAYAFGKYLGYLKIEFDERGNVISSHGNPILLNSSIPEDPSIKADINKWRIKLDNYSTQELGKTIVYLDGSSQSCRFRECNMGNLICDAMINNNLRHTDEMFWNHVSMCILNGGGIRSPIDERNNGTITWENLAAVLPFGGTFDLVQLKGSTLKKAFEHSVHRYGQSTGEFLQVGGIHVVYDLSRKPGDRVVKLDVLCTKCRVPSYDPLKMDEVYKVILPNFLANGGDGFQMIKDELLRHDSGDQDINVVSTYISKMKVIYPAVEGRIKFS

[2] = biological target: T1, human CD73 on Calu6 cells; test: cell-based or functional assay; remark: listed apart in the source
[3] = biological target: T1, human CD73 on Calu6 cells; test: cell-based or functional assay; remark: listed apart in the source
[4] = biological target: T1, human CD73 on Calu6 cells; test: cell-based or functional assay; remark: listed apart in the source
[5] = biological target: T2, N-hCD73-his (N-terminal domain of human CD73, residues 26-336) (human, UniProt P21589 26-336); test: SPR (Biacore T100), mAb captured on protein A, N-hCD73-his analyte
T2 construct: not shown: his tag
T2 sequence (looked up): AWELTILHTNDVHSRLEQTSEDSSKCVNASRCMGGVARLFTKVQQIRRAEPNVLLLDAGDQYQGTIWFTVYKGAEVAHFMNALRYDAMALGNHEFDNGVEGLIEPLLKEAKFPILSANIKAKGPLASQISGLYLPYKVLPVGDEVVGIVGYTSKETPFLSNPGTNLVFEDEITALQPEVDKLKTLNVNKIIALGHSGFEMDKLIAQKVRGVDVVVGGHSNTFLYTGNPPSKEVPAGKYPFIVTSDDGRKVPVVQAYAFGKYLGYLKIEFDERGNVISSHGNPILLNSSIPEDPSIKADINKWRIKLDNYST
Protocol: The affinity of the antibodies for human CD73 was measured to determine whether the change of the constant region affects them. The affinities were determined by Surface Plasmon Resonance (SPR) as follows. […] For these experiments, protein A (Pierce) was immobilized to a density of 3000-4000 RU on flow cells 1-4 of a CM5 sensor chip (GE Healthcare) using standard ethyl(dimethylaminopropyl) carbodiimide (EDC)/N-hydroxysuccinimide (NHS) chemistry, with ethanolamine blocking, in a running buffer of 0.01 M HEPES pH 7.4, 0.15 M NaCl, 3 mM EDTA, 0.005% v/v tween 20. […] The running buffer for the kinetic experiments was 10 mM sodium phosphate, 130 mM sodium chloride, 0.05% tween 20, pH 7.1. The surfaces were regenerated after each cycle using two 30 s pulses of 10 mM glycine pH 1.5 at a flow rate of 30 μl/min. Sensogram data was double-referenced and then fitted to a 1:1 Langmuir model using Biacore T100 evaluation software v2.0.4, to determine the association rate constant (ka), the dissociation rate constant (kd), and the equilibrium dissociation constant (KD).

| Binder | T1/2 (hr) of CD73 internalization, Calu6 cells [1] [h] | T1/2 (hr) of CD73 internalization, NCI-H292 cells [1] [h] | Ymax (%) of CD73 internalization, Calu6 cells [1] [%] | Ymax (%) of CD73 internalization, NCI-H292 cells [1] [%] | EC50 (nM) of CD73 internalization, Calu6 cells, 2 h [3] [nM] | Ymax of CD73 internalization (% of 100 nM 11F11) [3] [%] | Kd [5] | koff [5] | kon [5] | further results |
| --- | --- | --- | --- | --- | --- | --- | --- | --- | --- | --- |
| B1 | 0.287 | 0.257 | 80.2 | 89.6 |  |  |  |  |  |  |
| B2 | 0.351 | 0.276 | 81 | 90.3 |  |  |  |  |  | T1/2 (hr) of CD73 internalization, Calu6 cells [2]: 0.566 h; T1/2 (hr) of CD73 internalization, NCI-H292 cells [2]: 0.263 h; T1/2 (hr) of CD73 internalization, NCI-H1437 cells [2]: 0.316 h; T1/2 (hr) of CD73 internalization, NCI-H1437 cells (no wash) [2]: 0.342 h; T1/2 (hr) of CD73 internalization, SNU-C1 cells [2]: 0.495 h; T1/2 (hr) of CD73 internalization, SNU-C1 cells (no wash) [2]: 1.02 h; Ymax (%) of CD73 internalization, Calu6 cells [2]: 76.8%; Ymax (%) of CD73 internalization, NCI-H292 cells [2]: 77.6% |
| B3 | 0.348 | 0.306 | 79 | 89.6 |  |  |  |  |  |  |
| B4 | 0.353 | 0.299 | 79.6 | 90.9 |  |  |  |  |  |  |
| B5 |  |  |  |  | 0.67 | 99 | 6.2 nM and 8.3 nM | 0.0014 s⁻¹ and 0.0018 s⁻¹ | 220000 M⁻¹ s⁻¹ | % internalization, Calu6 cells [4]: 91%; % internalization, H228 cells [4]: 93%; % internalization, H2030 cells [4]: 85%; % internalization, HCC15 cells [4]: 91%; T1/2 min of internalization, Calu6 cells [4]: 3 min; T1/2 min of internalization, H228 cells [4]: 9.7 min; T1/2 min of internalization, H2030 cells [4]: 3.3 min; T1/2 min of internalization, HCC15 cells [4]: 2.6 min |
| B6 |  |  |  |  | 0.58 | 98 | 1.6 nM and 0.56 nM | 0.00042 s⁻¹ and 0.00016 s⁻¹ | 260000 M⁻¹ s⁻¹ and 290000 M⁻¹ s⁻¹ |  |
